Data as given in US20150344570A1 (published 2015).

T1: FcγRIIb (human, UniProt P31994 43-217)
T1 construct: extracellular domain; also called FcgRIIb; 2b
T1 sequence (looked up): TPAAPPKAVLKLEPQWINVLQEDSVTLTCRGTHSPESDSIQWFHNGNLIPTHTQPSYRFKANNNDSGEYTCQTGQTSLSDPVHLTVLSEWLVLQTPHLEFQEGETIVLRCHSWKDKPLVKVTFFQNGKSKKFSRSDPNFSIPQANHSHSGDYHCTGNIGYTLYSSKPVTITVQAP

T2: FcγRIIb extracellular domain with C-terminal His tag (human, UniProt P31994 43-217)
T2 construct: extracellular domain; also called 2b; FcgRIIb
T2 sequence (looked up): T1 sequence (looked up)

B1: GpH7-A5/GpH7-B3 variant S337_07I/GpL16-k0 (antibody, human IgG1, kappa)
heavy 1: not shown
heavy 2: not shown
light: DIVMTQSPLSLPVTPGEPASISCQASESLVHSNRNTYLHWYLQKPGQSPQLLIYKVSNRFSGVPDRFSGSGSGTDFTLKISRVEAEDVGVYYCSQNTHVPPTFGQGTKVEIERTVAAPSVFIFPPSDEQLKSGTASVVCLLNNFYPREAKVQWKVDNALQSGNSQESVTEQDSKDSTYSLSSTLTLSKADYEKHKVYACEVTHQGLSSPVTKSFNRGEC
notes: mutation in the GpH7-B3 chain only; also called He Ab
B2: GpH7-A5/GpH7-B3 variant S337_08L/GpL16-k0 (antibody, human IgG1, kappa)
heavy 1: not shown
heavy 2: not shown
light: B1 light
notes: as for B1
B3: GpH7-A5/GpH7-B3 variant T335_04F/GpL16-k0 (antibody, human IgG1, kappa)
heavy 1: not shown
heavy 2: not shown
light: B1 light
notes: as for B1
B4: GpH7-A5/GpH7-B3 variant T335_18N/GpL16-k0 (antibody, human IgG1, kappa)
heavy 1: not shown
heavy 2: not shown
light: B1 light
notes: as for B1
B5: GpH7-A5/GpH7-B3 variant L234_04F/GpL16-k0 (antibody, human IgG1, kappa)
heavy 1: not shown
heavy 2: not shown
light: B1 light
notes: also called He Ab
B6: GpH7-A5/GpH7-B3 variant A330_03V/GpL16-k0 (antibody, human IgG1, kappa)
heavy 1: not shown
heavy 2: not shown
light: B1 light
notes: also called He Ab
B7: GpH7-A5/GpH7-B3 variant A330_04F/GpL16-k0 (antibody, human IgG1, kappa)
heavy 1: not shown
heavy 2: not shown
light: B1 light
notes: also called He Ab
B8: GpH7-A5/GpH7-B3 variant A330_06M/GpL16-k0 (antibody, human IgG1, kappa)
heavy 1: not shown
heavy 2: not shown
light: B1 light
notes: also called He Ab
B9: GpH7-A5/GpH7-B3 variant A330_07I/GpL16-k0 (antibody, human IgG1, kappa)
heavy 1: not shown
heavy 2: not shown
light: B1 light
notes: also called He Ab
B10: GpH7-A5/GpH7-B3 variant A330_08L/GpL16-k0 (antibody, human IgG1, kappa)
heavy 1: not shown
heavy 2: not shown
light: B1 light
notes: also called He Ab
B11: GpH7-A5/GpH7-B3 variant A330_15Y/GpL16-k0 (antibody, human IgG1, kappa)
heavy 1: not shown
heavy 2: not shown
light: B1 light
notes: also called He Ab
B12: GpH7-A5/GpH7-B3 variant A330_16H/GpL16-k0 (antibody, human IgG1, kappa)
heavy 1: not shown
heavy 2: not shown
light: B1 light
notes: also called He Ab
B13: GpH7-A5/GpH7-B3 variant A330_20W/GpL16-k0 (antibody, human IgG1, kappa)
heavy 1: not shown
heavy 2: not shown
light: B1 light
notes: also called He Ab
B14: GpH7-A5/GpH7-B3 variant D270_10E/GpL16-k0 (antibody, human IgG1, kappa)
heavy 1: not shown
heavy 2: not shown
light: B1 light
notes: also called He Ab
B15: GpH7-A5/GpH7-B3 variant E333_02A/GpL16-k0 (antibody, human IgG1, kappa)
heavy 1: not shown
heavy 2: not shown
light: B1 light
notes: also called He Ab
B16: GpH7-A5/GpH7-B3 variant E333_03V/GpL16-k0 (antibody, human IgG1, kappa)
heavy 1: not shown
heavy 2: not shown
light: B1 light
notes: also called He Ab
B17: GpH7-A5/GpH7-B3 variant E333_04F/GpL16-k0 (antibody, human IgG1, kappa)
heavy 1: not shown
heavy 2: not shown
light: B1 light
notes: also called He Ab
B18: GpH7-A5/GpH7-B3 variant E333_09D/GpL16-k0 (antibody, human IgG1, kappa)
heavy 1: not shown
heavy 2: not shown
light: B1 light
notes: also called He Ab
B19: GpH7-A5/GpH7-B3 variant E333_13S/GpL16-k0 (antibody, human IgG1, kappa)
heavy 1: not shown
heavy 2: not shown
light: B1 light
notes: also called He Ab
B20: GpH7-A5/GpH7-B3 variant E333_16H/GpL16-k0 (antibody, human IgG1, kappa)
heavy 1: not shown
heavy 2: not shown
light: B1 light
notes: also called He Ab
B21: GpH7-A5/GpH7-B3 variant E333_20W/GpL16-k0 (antibody, human IgG1, kappa)
heavy 1: not shown
heavy 2: not shown
light: B1 light
notes: also called He Ab
B22: GpH7-A5/GpH7-B3 variant I332_01G/GpL16-k0 (antibody, human IgG1, kappa)
heavy 1: not shown
heavy 2: not shown
light: B1 light
notes: also called He Ab

biological target: T3, FcγRIIIa (human, UniProt P08637 17-208); assay: SPR (Biacore), relative binding
T3 construct: extracellular domain; also called FcgRIIIa; 3a
T3 sequence (P08637 17-208): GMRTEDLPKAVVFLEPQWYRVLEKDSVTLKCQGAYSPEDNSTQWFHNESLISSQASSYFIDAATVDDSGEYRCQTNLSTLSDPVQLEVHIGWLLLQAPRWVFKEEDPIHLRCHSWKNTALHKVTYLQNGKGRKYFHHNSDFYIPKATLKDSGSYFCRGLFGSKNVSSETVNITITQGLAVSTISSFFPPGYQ

Point of comparison: B1, He/Con_3a 94.8 % of GpH7-A5/GpH7-B3/GpL16-k0. Against it:
- B2 — higher, 96.9 % of GpH7-A5/GpH7-B3/GpL16-k0
- B3 — higher, 96 % of GpH7-A5/GpH7-B3/GpL16-k0
- B4 — higher, 98.8 % of GpH7-A5/GpH7-B3/GpL16-k0

biological target: T1, FcγRIIb; assay: SPR (Biacore), relative binding

Point of comparison: B1, He/Con_2b 104 % of GpH7-A5/GpH7-B3/GpL16-k0. Against it:
- B2 — lower, 100 % of GpH7-A5/GpH7-B3/GpL16-k0
- B3 — lower, 103 % of GpH7-A5/GpH7-B3/GpL16-k0
- B4 — lower, 102 % of GpH7-A5/GpH7-B3/GpL16-k0

biological target: T4, FcγRIIIa extracellular domain with C-terminal His tag (human, UniProt P08637 17-208); assay: SPR, binding relative to GpH7-A5/GpH7-B3/GpL16-k0 = 100
T4 construct: extracellular domain; also called 3a; FcgRIIIa
Method: (§1) The heterodimerized antibodies He Abs in which one of the H chains was introduced with an alteration were assayed for their binding activities to each activating FcγR and inhibitory FcγR according to the method described in Example 4. […] The activating FcγRs in FIGS. 26, 27, 28, and 29 are FcγRIa, FcγRIIa (R), FcγRIIa (H), and FcγRIIIa, respectively.
(§2) Analysis of interaction between objective antibody and the FcγR was carried out using Biacore T100 (GE Healthcare). HBS-EP+ (GE Healthcare) was used as the running buffer, and the measurement temperature was set to 25° C. Chips produced by immobilizing the antigen peptide by the amine coupling method to a Series S Sencor Chip CM5 (GE Healthcare), or alternatively, chips produced by allowing preliminarily biotinylated antigen peptides to interact with and immobilize onto a Series S Sensor Chip SA (certified) (GE Healthcare) were used. Antibodies of interest were captured onto an antigen peptide-immobilized chip, and allowed to interact to each FcγR diluted with running buffer. To regenerate and repeatedly use the chip, the antibodies captured on the chip were washed off by reacting 10 mM glycine-HCl, pH 1.5.

T4 sequence (P08637 17-208): as above

Point of comparison: B17, He/Con_3a 101 % of control. Against it:
- B5 — higher, 118 % of control
- B6 — the same, 101 % of control
- B7 — higher, 147 % of control
- B8 — higher, 142 % of control
- B9 — higher, 103 % of control
- B10 — higher, 124 % of control
- B11 — higher, 125 % of control
- B12 — higher, 104 % of control
- B13 — higher, 104 % of control
- B14 — higher, 123 % of control
- B15 — higher, 105 % of control
- B16 — higher, 103 % of control
- B18 — higher, 112 % of control
- B19 — higher, 103 % of control
- B20 — higher, 103 % of control
- B21 — the same, 101 % of control
- B22 — higher, 111 % of control

biological target: T2, FcγRIIb extracellular domain with …; assay: as above
Method: as §1, §2

Point of comparison: B19, He/Con_2b 81.8 % of control. Against it:
- B5 — higher, 99.8 % of control
- B6 — lower, 52.4 % of control
- B7 — higher, 92.8 % of control
- B8 — lower, 80.5 % of control
- B9 — lower, 67.1 % of control
- B10 — lower, 70.5 % of control
- B11 — higher, 95 % of control
- B12 — higher, 87.6 % of control
- B13 — lower, 76.1 % of control
- B14 — lower, 76.5 % of control
- B15 — higher, 83.8 % of control
- B16 — higher, 93.2 % of control
- B17 — higher, 94.6 % of control
- B18 — higher, 94.3 % of control
- B20 — higher, 83.3 % of control
- B21 — higher, 89.5 % of control
- B22 — higher, 87.1 % of control
